Reference: US20150024955

B1: FLAG-tagged human HDAC7, phosphorylated (from DO11.10-HDAC7-Flag cells treated with PMA or anti-CD3) (protein)
chain: MDLRVGQRPPVEPPPEPTLLALQRPQRLHHHLFLAGLQQQRSVEPMRLSMDTPMPELQVGPQEQELRQLLHKDKSKRSAVASSVVKQKLAEVILKKQQAALERTVHPNSPGIPYRTLEPLETEGATRSMLSSFLPPVPSLPSDPPEHFPLRKTVSEPNLKLRYKPKKSLERRKNPLLRKESAPPSLRRRPAETLGDSSPSSSSTPASGCSSPNDSEHGPNPILGSEADSDRRTHPTLGPRGPILGSPHTPLFLPHGLEPEAGGTLPSRLQPILLLDPSGSHAPLLTVPGLGPLPFHFAQSLMTTERLSGSGLHWPLSRTRSEPLPPSATAPPPPGPMQPRLEQLKTHVQVIKRSAKPSEKPRLRQIPSAEDLETDGGGPGQVVDDGLEHRELGHGQPEARGPAPLQQHPQVLLWEQQRLAGRLPRGSTGDTVLLPLAQGGHRPLSRAQSSPAAPASLSAPEPASQARVLSSSETPARTLPFTTGLIYDSVMLKHQCSCGDNSRHPEHAGRIQSIWSRLQERGLRSQCECLRGRKASLEELQSVHSERHVLLYGTNPLSRLKLDNGKLAGLLAQRMFVMLPCGGVGVDTDTIWNELHSSNAARWAAGSVTDLAFKVASRELKNGFAVVRPPGHHADHSTAMGFCFFNSVAIACRQLQQQSKASKILIVDWDVHHGNGTQQTFYQDPSVLYISLHRHDDGNFFPGSGAVDEVGAGSGEGFNVNVAWAGGLDPPMGDPEYLAAFRIVVMPIAREFSPDLVLVSAGFDAAEGHPAPLGGYHVSAKCFGYMTQQLMNLAGGAVVLALEGGHDLTAICDASEACVAALLGNRVDPLSEEGWKQKPNLNAIRSLEAVIRVHSKYWGCMQRLASCPDSWVPRVPGADKEEVEAVTALASLSVGILAEDRPSEQLVEEEEPMNL
B2: myosin phosphatase (complex of PP1β and MYPT1) (protein)
chain 1: ADGELNVDSLITRLLEVRGCRPGKIVQMTEAEVRGLCIKSREIFLSQPILLELEAPLKICGDIHGQYTDLLRLFEYGGFPPEANYLFLGDYVDRGKQSLETICLLLAYKIKYPENFFLLRGNHECASINRIYGFYDECKRRFNIKLWKTFTDCFNCLPIAAIVDEKIFCCHGGLSPDLQSMEQIRRIMRPTDVPDTGLLCDLLWSDPDKDVQGWGENDRGVSFTFGADVVSKFLNRHDLDLICRAHQVVEDGYEFFAKRQLVTLFSAPNYCGEFDNAGGMMSVDETLMCSFQILKPSEKKAKYQYGGLNSGRPVTPPRTANPPKKR
chain 2: MKMADAKQKRNEQLKRWIGSETDLEPPVVKRQKTKVKFDDGAVFLAACSSGDTDEVLKLLHRGADINYANVDGLTALHQACIDDNVDMVKFLVENGANINQPDNEGWIPLHAAASCGYLDIAEFLIGQGAHVGAVNSEGDTPLDIAEEEAMEELLQNEVNRQGVDIEAARKEEERVMLRDARQWLNSGHISDVRHAKSGGTALHVAAAKGYTEVLKLLIQAGYDVNIKDYDGWTPLHAAAHWGKEEACRILVDNLCDMETVNKVGQTAFDVADEDILGYLEELQKKQTLLHSEKRDKKSPLIESTANMENNQPQKAFKNKETLIIEPEKNASRIESLEHEKADEEEEGKKDESSCSSEEDEEDDSESEAETDKTKPMASVSNAHTSSTQAAPAAVTAPTLSSNQGTPTSPVKKFPISTTKISPKEEERKDESPASWRLGLRKTGSYGALAEISASKEAQKEKDTAGVMRSASSPRLSSSLDNKEKEKDNKGTRLAYVTPTIPRRLASTSDIEEKENRESSSLRTSSSYTRRKWEDDLKKNSSINEGSTYHRSCSFGRRQDDLISCSVPSTTSTPTVTSAAGLQRSLPSSTSTAAKTPPGSSSAGTQSSTSNRLWAEDSTEKEKDSAPTAVTIPVAPTVVNAAAPSTTTLTTTTAGTVSEVRERRRSYLTPVRDEESESQRKARSRQARQSRRSTQGVTLTDLQEAEKTIGRSRSTRTREQENEEKEKEEKEKQDKEKQEEKKESEASREDEYKQKYSRTYDETYTRYRPVSTSSSSAPSSSSLSTLGSTLYASSQLNRPNSLVGITSAYSRGLAKENEREGEKKEEEKEGEDKSQPKSIRERRRPREKRRSTGVSFWTQDSDENEQERQSDTEDGSSKRETQTDSVSRYDSSSTSSSDRYDSLLGRSASYSYLEDRKPYSSRLEKDDSTDFKKLYEQILAENEKLKAQLHDTNMELTDLKLQLEKATQRQERFADRSQLEMEKRERRALERRISEMEEELKMLPDLKADNQRLKDENGALIRVISKLSK

Key:
[1] = target: mixture of recombinant PP1 isoforms (α, β, and γ; Upstate)

HDAC7-GFP fusion protein, sequence (Q8C2B3 whole entry, the tested form may be a part): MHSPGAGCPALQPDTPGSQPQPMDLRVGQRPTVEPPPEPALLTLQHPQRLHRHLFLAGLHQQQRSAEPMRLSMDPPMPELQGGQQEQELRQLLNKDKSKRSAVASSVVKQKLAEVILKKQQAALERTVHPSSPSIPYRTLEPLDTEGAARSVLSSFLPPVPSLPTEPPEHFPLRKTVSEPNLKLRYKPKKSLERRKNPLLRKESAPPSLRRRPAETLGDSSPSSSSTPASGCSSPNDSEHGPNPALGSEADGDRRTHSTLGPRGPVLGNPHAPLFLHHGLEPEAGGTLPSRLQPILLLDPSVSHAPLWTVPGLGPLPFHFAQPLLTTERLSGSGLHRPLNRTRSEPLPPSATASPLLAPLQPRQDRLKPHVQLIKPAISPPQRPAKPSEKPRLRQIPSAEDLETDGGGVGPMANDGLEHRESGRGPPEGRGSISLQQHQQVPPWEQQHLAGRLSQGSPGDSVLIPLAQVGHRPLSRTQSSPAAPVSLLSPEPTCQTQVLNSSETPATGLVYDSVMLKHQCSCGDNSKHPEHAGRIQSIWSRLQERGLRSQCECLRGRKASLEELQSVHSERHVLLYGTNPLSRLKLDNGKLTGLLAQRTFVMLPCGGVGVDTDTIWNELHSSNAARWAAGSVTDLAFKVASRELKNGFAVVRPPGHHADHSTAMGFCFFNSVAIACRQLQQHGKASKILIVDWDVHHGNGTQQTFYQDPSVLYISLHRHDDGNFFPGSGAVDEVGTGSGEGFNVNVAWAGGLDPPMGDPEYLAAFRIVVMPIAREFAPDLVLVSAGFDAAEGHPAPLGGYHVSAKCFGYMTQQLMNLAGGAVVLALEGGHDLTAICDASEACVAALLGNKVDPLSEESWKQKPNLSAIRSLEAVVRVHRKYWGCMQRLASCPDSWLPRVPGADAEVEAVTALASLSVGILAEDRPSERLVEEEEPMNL

Protein	in vitro dephosphorylation assay (30 minutes at 30° C.), Western blot with phospho HDAC7 antibodies [1]	nuclear exclusion of HDAC7-GFP after siRNA knockdown of myosin phosphatase subunits (immunofluorescence microscopy) (HDAC7-GFP fusion protein)
B1	recombinant PP1 treatment totally abolished the reactivity to the different phospho HDAC7 antibodies	–
B2	–	HDAC7 nuclear re-entry was significantly delayed at later time points
